Test: label from the status in PepcDB records

Sequence | protein production
MARIHQLDEHLSNMIAAGEVVERPSGIVKELVENSIDAKAKHIEIQILQGGIDCITIIDDGCGMDAQDATLAFERHATSKIQAVDDLWKISTMGFRGEALPSIASVSQVTLRTNDGIDSSEVIIYYGTLKSARPCGTPKGTMLEVRNLFQKTPARFKHLKSPQYEFSLISDVVQKFAISHPNIGFELSHDGRSVFKTKGNGNLREVLMQIYGRDGAKTAIELHGQDLDYTIRGYALQPQFQRATKYYVLLYINGRMIRNYHLQKAVMDAYAPYMPKDRYPIAVINMEMDAQLVDVNVHPSKWEIRLSKEKQLEKLLYQTIKAALMQDMEVPNIQARKENKKEKIEIQELQFTYPRDQEVKKLHTEVNDSFVHYNGKPKQTITEESKVQVDKVEPQEAPVEAEKQESVDKKQELSESQSSDTQAPIKDQVIEEVSTTKQAETLFKDIVPIQEVVMKAEQEPASESINPSLPQLHVIGQFHNSYILAEGEKGLYIIDQHAAQERYHYEMIQKQILSGVKDTQPLLIPITVETTISAVSRIDDLNALLEQVGIHFEVFGNTTLLCRELPIWLKDTKEEAFLQDMIDLWQKDDEISLDKLRKHTIATMACHSSIRFHRSLTMEEMKQVILDLGKCEQPFHCPHGRPTLICYEDKDLIHDFERG | failed
MARIIVKNGYLKGGSEKTSAHLNNLVKYIATRDGVEKIKNGRELWHATKKQQTLIGEILREFPDAKEMFEYEDYLANPNRENASEFITIALEQHLDKIGDREKYLDYIANRPRVEKFESHGLFTAGDAPLVLSQVAEEVAAHTGNVWTPIISLRREDAARLDYDNAAAWKALLSSKAMELAENLKIHPDHLKWYGAFHNESHHPHIHMVCYSTDPREGYLTKQGIRKMKSSLANEIFRQELIPLYGEKTQRRDELKEQSAESLRELIRQIKGGVLVSERMEQLLTHLAERLQTVSGKKQYGYLKPELKNVVDEIVDDLAQDSRVSEAYRMWWETKGRIESIYTETPSEPPPLSHCDDFKPIRNMVIQEALLIGNMTFEEPASVETALPEPENDLEMSLSDIEDEEDQEPIDDSVGRPSSDEASAGKESSDSWWTEEYRQAKQYLCGDEDAGVPQDFRKAHELFMAEADKNNPLALYDLGRMSADGLGCEADADAAYGWYEKALVVLHAAEEAKPWKYTEYRIGKMYAAGLGAEQDYLQASDWLTLSADKKYKYAQYSLGGLYYHGKGVEQDHVTAFALYTRSADQSFPYASFELGKMLRDGIGCAKNQQDSDRRFKEAFLGFVSLEEQSHDDKLQYRLGWMLLNGIGTDKDEARAKEYFEKAASVGNPFACYQLAKFILSDEKAQPQDVEKALGYLRKAVEAENPYAAYFLGKLYEKGQHVPQNTAEAMRLYTLSAEQDNEFAAYRLGKLYLDGDGVLKDVESAIRWLTFAADRKNQFAEYALGVLYFKGEDIPKDVPKALEYLKRSAGQGNQFAQYRLGKIYLMGEDVPKDIQTALQFLTAAAEQGNQYAQYTLGKLYLIGKDVPKDKETAVRWFTLSAAQGNIYAQFFLDHIDNFKDPSVLLAGTRLLHHMSRIFADNAPPLKLPGQRTDRKLLRKLREKKQAQGHARDDHEQTMSL | failed
MARKKAMKVLRKQKKRENMQRFTQKQNIGRACLTAKEFRLLQRMSHSSKALRNVGLYTMKQSYLNHNRMATVKEVDTAMQNDMNYSGIQSNSVQAIRRSLFTEVKSFFKALEQWKKNPEKFTGRPKFPNYSRSTDKRIIEIYQVPKVDENGYWIIPMNVAFRKKFGSIQIRMPKNLRNKKISYIEIVPKQKGRFFEVHYTYEMHVSQMKKPSTTTSNALSCDLGVDRLVSCVTHTGDAFLIDGKKLKSINQYFNKMICNLQQKNMDNGISKRIVTNKMAALWHKRERQINGYIAQTVGLLFKKVKEFDIDTIVIGYNAGWKQNSHMGKKNNQKFVQIPFQKLMAAIENKCIKEGIRFFKQEESYTSKASFLDKDPVPVWSKNDRTQYRFSGKRITRGLYQSKAGTCIHADINGAMNILKKSGVVELDDNLKVKTPILLEVQKRKAIASRIA | failed
MARLSLVPGRGGLVTEWTVQGQPILYFDRERFQDPSLSVRGGIPILFPICGNLPQDQFNHAGKSYRLKQHGFARDLPWEVIGQQTQDNARLDLRLSHNDATLEAFPFAFELVFSYQLQGHSLRIEQRIANLGDQRMPFSLGFHPYFFCREKLGITLAIPANDYLDQKTGDCHGYDGQLNLTSPELDLAFTQISQPRAHFIDPDRNLKIEVSFSELYQTLVLWTVAGKDYLCLEPLEHHHHHH | failed
MARRKRRNFSKQASEILNEYFYSHLSNPYPSEEAKEELARKCGITVAQVSNWFGNKRIRYKKNIGKAQEEANLYAAKKAAGASP | not failed

Reference: a protein production outcome set (Wang et al. 2014)
